Source: patent US20240132578A1

Assays:
[1] = molecular target: HIV-1 Env of isolate 93IN905 (HIV-1); assay: cell-based or functional assay
[2] = molecular target: HIV-1 Env of isolate 93MW959 (HIV-1); assay: cell-based or functional assay
[3] = molecular target: HIV-1 Env of isolate 97ZA012 (HIV-1); assay: cell-based or functional assay
[4] = molecular target: HIV-1 Env of isolate 98IN022 (HIV-1); assay: cell-based or functional assay
[5] = molecular target: HIV-1 Env of isolate JRCSF (HIV-1) (UniProt P20871); assay: cell-based or functional assay
[6] = molecular target: HIV-1 Env of isolate MGRM-Chronic-B-010 (HIV-1); assay: cell-based or functional assay
[7] = molecular target: HIV-1 Env of isolate MGRM-Chronic-B-011 (HIV-1); assay: cell-based or functional assay
[8] = molecular target: HIV-1 Env of isolate MGRM-Chronic-B-012 (HIV-1); assay: cell-based or functional assay
[9] = molecular target: HIV-1 Env of isolate MGRM-Chronic-B-017 (HIV-1); assay: cell-based or functional assay
[10] = molecular target: HIV-1 Env of isolate MGRM-Chronic-B-018 (HIV-1); assay: cell-based or functional assay
[11] = molecular target: HIV-1 Env of isolate MGRM-Chronic-B-020 (HIV-1); assay: cell-based or functional assay
[12] = molecular target: HIV-1 Env of isolate MGRM-Chronic-B-023 (HIV-1); assay: cell-based or functional assay
[13] = molecular target: HIV-1 Env of isolate MGRM-Chronic-B-024 (HIV-1); assay: cell-based or functional assay
[14] = molecular target: HIV-1 Env of isolate NL43 (HIV-1); assay: cell-based or functional assay
[15] = molecular target: HIV-1 Env of isolate PVO.4 (HIV-1); assay: cell-based or functional assay
[16] = molecular target: HIV-1 Env of isolate QH0692.42 (HIV-1); assay: cell-based or functional assay
[17] = molecular target: HIV-1 Env of isolate SC422661.8 (HIV-1); assay: cell-based or functional assay
[18] = molecular target: HIV-1 Env of isolate SF162 (HIV-1) (UniProt P19550); assay: cell-based or functional assay
[19] = molecular target: HIV-1 Env of isolate THR0.18 (HIV-1); assay: cell-based or functional assay
[20] = molecular target: HIV-1 Env of isolate TRJ04551.58 (HIV-1); assay: cell-based or functional assay
[21] = molecular target: HIV-1 Env of isolate TRO.11 (HIV-1); assay: cell-based or functional assay
[22] = molecular target: HIV-1 Env of isolate VLGCB3 (HIV-1); assay: cell-based or functional assay
[23] = molecular target: HIV-1 Env of pseudovirus MGRM-F1-021 (HIV-1); assay: cell-based or functional assay
[24] = molecular target: HIV-1 envelope glycoprotein (Env) of isolate MG RM-AG-009 (HIV-1); assay: cell-based or functional assay
[25] = molecular target: HIV-1 92RW020 Env (HIV-1); assay: cell-based or functional assay
[26] = molecular target: HIV-1 Env of isolate 92UG031 (pseudovirus) (HIV-1); assay: cell-based or functional assay
[27] = molecular target: HIV-1 Env of isolate 92UG037 (pseudovirus) (HIV-1); assay: cell-based or functional assay
[28] = molecular target: HIV-1 Env of isolate 92WR020 (pseudovirus) (HIV-1); assay: cell-based or functional assay
[29] = molecular target: HIV-1 Env of isolate 92WR021 (pseudovirus) (HIV-1); assay: cell-based or functional assay
[30] = molecular target: HIV-1 Env of isolate 92WR024 (pseudovirus) (HIV-1); assay: cell-based or functional assay
[31] = molecular target: HIV-1 Env of isolate 93UG077 (pseudovirus) (HIV-1); assay: cell-based or functional assay
[32] = molecular target: HIV-1 Env of isolate 93WR029 (pseudovirus) (HIV-1); assay: cell-based or functional assay
[33] = molecular target: HIV-1 Env of isolate 94UG103 (pseudovirus) (HIV-1); assay: cell-based or functional assay
[34] = molecular target: HIV-1 Env of isolate MGRM-AG-001 (subtype AG) (HIV-1); assay: cell-based or functional assay
[35] = molecular target: HIV-1 Env of isolate MGRM-D-016 (pseudovirus) (HIV-1); assay: cell-based or functional assay
[36] = molecular target: HIV-1 Env of pseudovirus isolate MGRM-C-026 (clade C) (HIV-1); assay: cell-based or functional assay
[37] = molecular target: WT JR-FL gp120 (HIV-1 JR-FL); assay: ELISA, antigen-coated wells, mAb titrated; EC50 by nonlinear regression
[38] = molecular target: HIV-1 MGRM-A-010 Env (HIV-1); assay: cell-based or functional assay
[39] = molecular target: HIV-1 MGRM-C-028 Env (HIV-1); assay: cell-based or functional assay

PGT-142 (4995_E20) (antibody), sequence (VH): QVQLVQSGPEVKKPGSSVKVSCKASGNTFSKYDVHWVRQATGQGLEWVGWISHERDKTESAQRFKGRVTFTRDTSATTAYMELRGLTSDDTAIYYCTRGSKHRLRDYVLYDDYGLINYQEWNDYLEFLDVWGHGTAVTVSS
PGT-142 (4995_E20) (antibody), sequence (VL): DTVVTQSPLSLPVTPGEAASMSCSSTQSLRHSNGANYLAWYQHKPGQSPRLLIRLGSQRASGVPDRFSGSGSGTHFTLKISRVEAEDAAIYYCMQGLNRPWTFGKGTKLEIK
PGT-143 (4980_N08) (antibody), sequence (VH): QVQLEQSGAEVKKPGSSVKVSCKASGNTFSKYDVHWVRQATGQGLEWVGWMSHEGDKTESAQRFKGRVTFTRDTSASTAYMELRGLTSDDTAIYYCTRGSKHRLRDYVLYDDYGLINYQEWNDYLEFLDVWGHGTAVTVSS
PGT-143 (4980_N08) (antibody), sequence (VL): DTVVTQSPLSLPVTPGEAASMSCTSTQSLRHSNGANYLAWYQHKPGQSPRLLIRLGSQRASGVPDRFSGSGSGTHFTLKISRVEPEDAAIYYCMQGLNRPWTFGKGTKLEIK

PGT-142 (4995_E20) (antibody)
IC50, pseudovirus neutralization [1]: 0.001 µg/mL | IC50, pseudovirus neutralization [2]: 0.001 µg/mL | IC50, pseudovirus neutralization [3]: > 50 µg/mL | IC50, pseudovirus neutralization [4]: 0.001 µg/mL | IC50, pseudovirus neutralization [5]: 0.01 µg/mL | IC50, pseudovirus neutralization [6]: > 50 µg/mL | IC50, pseudovirus neutralization [7]: 0.994 µg/mL | IC50, pseudovirus neutralization [8]: > 50 µg/mL | IC50, pseudovirus neutralization [9]: 0.076 µg/mL | IC50, pseudovirus neutralization [10]: 0.323 µg/mL | IC50, pseudovirus neutralization [11]: > 50 µg/mL | IC50, pseudovirus neutralization [12]: 0.486 µg/mL | IC50, pseudovirus neutralization [13]: 0.005 µg/mL | IC50, pseudovirus neutralization [14]: > 50 µg/mL | IC50, pseudovirus neutralization [15]: 0.066 µg/mL | IC50, pseudovirus neutralization [16]: > 50 µg/mL | IC50, pseudovirus neutralization [17]: 3.15 µg/mL | IC50, pseudovirus neutralization [18]: > 50 µg/mL | IC50, pseudovirus neutralization [19]: 0.012 µg/mL | IC50, pseudovirus neutralization [20]: > 50 µg/mL | IC50, pseudovirus neutralization [21]: 0.27 µg/mL | IC50, pseudovirus neutralization [22]: > 50 µg/mL | IC50, pseudovirus neutralization [23]: > 50 µg/mL | IC50 [24]: > 50 µg/mL

PGT-143 (4980_N08) (antibody)
IC50, pseudovirus neutralization [1]: 0.002 µg/mL | IC50, pseudovirus neutralization [2]: 0.002 µg/mL | IC50, pseudovirus neutralization [3]: > 50 µg/mL | IC50, pseudovirus neutralization [4]: 0.001 µg/mL | IC50, pseudovirus neutralization [5]: 0.007 µg/mL | IC50, pseudovirus neutralization [6]: > 50 µg/mL | IC50, pseudovirus neutralization [7]: 1.56 µg/mL | IC50, pseudovirus neutralization [8]: > 50 µg/mL | IC50, pseudovirus neutralization [9]: 0.145 µg/mL | IC50, pseudovirus neutralization [10]: 0.377 µg/mL | IC50, pseudovirus neutralization [11]: > 50 µg/mL | IC50, pseudovirus neutralization [12]: 0.236 µg/mL | IC50, pseudovirus neutralization [13]: 0.01 µg/mL | IC50, pseudovirus neutralization [14]: > 50 µg/mL | IC50, pseudovirus neutralization [15]: 0.162 µg/mL | IC50, pseudovirus neutralization [16]: > 50 µg/mL | IC50, pseudovirus neutralization [17]: 2.02 µg/mL | IC50, pseudovirus neutralization [18]: > 50 µg/mL | IC50, pseudovirus neutralization [19]: 0.016 µg/mL | IC50, pseudovirus neutralization [20]: > 50 µg/mL | IC50, pseudovirus neutralization [21]: 0.219 µg/mL | IC50, pseudovirus neutralization [22]: > 50 µg/mL | IC50, pseudovirus neutralization [23]: > 50 µg/mL | IC50 [24]: > 50 µg/mL

5329_C19 (PGT-136) (antibody)
IC50, pseudovirus neutralization [25]: 0.738 µg/mL | IC50 (µg/mL), pseudovirus neutralization [26]: > 50 µg/mL | IC50 (µg/mL), pseudovirus neutralization [27]: > 50 µg/mL | IC50 (µg/mL), pseudovirus neutralization [28]: 2.33 µg/mL | IC50 (µg/mL), pseudovirus neutralization [29]: > 50 µg/mL | IC50 (µg/mL), pseudovirus neutralization [30]: > 50 µg/mL | IC50 (µg/mL), pseudovirus neutralization [1]: 0.011 µg/mL | IC50 (µg/mL), pseudovirus neutralization [2]: > 50 µg/mL | IC50 (µg/mL), pseudovirus neutralization [31]: > 50 µg/mL | IC50 (µg/mL), pseudovirus neutralization [32]: > 50 µg/mL | IC50 (µg/mL), pseudovirus neutralization [33]: > 50 µg/mL | IC50 (µg/mL), pseudovirus neutralization [3]: > 50 µg/mL | IC50 (µg/mL), pseudovirus neutralization [4]: 13.6 µg/mL | IC50 (µg/mL), pseudovirus neutralization [5]: > 50 µg/mL | IC50, pseudovirus neutralization [34]: > 50 µg/mL | IC50 (µg/mL), pseudovirus neutralization [6]: > 50 µg/mL | IC50 (µg/mL), pseudovirus neutralization [7]: > 50 µg/mL | IC50 (µg/mL), pseudovirus neutralization [8]: 43.1 µg/mL | IC50 (µg/mL), pseudovirus neutralization [9]: > 50 µg/mL | IC50 (µg/mL), pseudovirus neutralization [10]: > 50 µg/mL | IC50 (µg/mL), pseudovirus neutralization [11]: > 50 µg/mL | IC50 (µg/mL), pseudovirus neutralization [12]: > 50 µg/mL | IC50 (µg/mL), pseudovirus neutralization [13]: > 50 µg/mL | IC50 (µg/mL), pseudovirus neutralization [35]: > 50 µg/mL | IC50 (µg/mL), pseudovirus neutralization [14]: 27.7 µg/mL | IC50 (µg/mL), pseudovirus neutralization [15]: > 50 µg/mL | IC50 (µg/mL), pseudovirus neutralization [16]: > 50 µg/mL | IC50 (µg/mL), pseudovirus neutralization [17]: > 50 µg/mL | IC50 (µg/mL), pseudovirus neutralization [18]: 0.482 µg/mL | IC50 (µg/mL), pseudovirus neutralization [19]: > 50 µg/mL | IC50 (µg/mL), pseudovirus neutralization [20]: > 50 µg/mL | IC50 (µg/mL), pseudovirus neutralization [21]: 0.073 µg/mL | IC50 (µg/mL), pseudovirus neutralization [22]: > 50 µg/mL | IC50, pseudovirus neutralization [36]: 0.006 µg/mL | EC50 [37]: 0.2 µg/mL

5147_N06 (PGT-130) (antibody)
IC50, pseudovirus neutralization [25]: 0.014 µg/mL | IC50 (µg/mL), pseudovirus neutralization [26]: > 50 µg/mL | IC50 (µg/mL), pseudovirus neutralization [27]: 0.061 µg/mL | IC50 (µg/mL), pseudovirus neutralization [28]: 0.039 µg/mL | IC50 (µg/mL), pseudovirus neutralization [29]: 0.004 µg/mL | IC50 (µg/mL), pseudovirus neutralization [30]: > 50 µg/mL | IC50 (µg/mL), pseudovirus neutralization [1]: 0.02 µg/mL | IC50 (µg/mL), pseudovirus neutralization [2]: 8.55 µg/mL | IC50 (µg/mL), pseudovirus neutralization [31]: 21.4 µg/mL | IC50 (µg/mL), pseudovirus neutralization [32]: 34.3 µg/mL | IC50 (µg/mL), pseudovirus neutralization [33]: 1.4 µg/mL | IC50 (µg/mL), pseudovirus neutralization [3]: 1.32 µg/mL | IC50 (µg/mL), pseudovirus neutralization [4]: > 50 µg/mL | IC50 (µg/mL), pseudovirus neutralization [5]: 0.01 µg/mL | IC50, pseudovirus neutralization [34]: > 50 µg/mL | IC50 (µg/mL), pseudovirus neutralization [6]: 0.006 µg/mL | IC50 (µg/mL), pseudovirus neutralization [7]: 0.153 µg/mL | IC50 (µg/mL), pseudovirus neutralization [8]: 0.373 µg/mL | IC50 (µg/mL), pseudovirus neutralization [9]: > 50 µg/mL | IC50 (µg/mL), pseudovirus neutralization [10]: 31.9 µg/mL | IC50 (µg/mL), pseudovirus neutralization [11]: 0.014 µg/mL | IC50 (µg/mL), pseudovirus neutralization [12]: > 50 µg/mL | IC50 (µg/mL), pseudovirus neutralization [13]: 5.78 µg/mL | IC50 (µg/mL), pseudovirus neutralization [35]: > 50 µg/mL | IC50 (µg/mL), pseudovirus neutralization [14]: > 50 µg/mL | IC50 (µg/mL), pseudovirus neutralization [15]: 5.17 µg/mL | IC50 (µg/mL), pseudovirus neutralization [16]: > 50 µg/mL | IC50 (µg/mL), pseudovirus neutralization [17]: > 50 µg/mL | IC50 (µg/mL), pseudovirus neutralization [18]: 0.007 µg/mL | IC50 (µg/mL), pseudovirus neutralization [19]: > 50 µg/mL | IC50 (µg/mL), pseudovirus neutralization [20]: 0.023 µg/mL | IC50 (µg/mL), pseudovirus neutralization [21]: 0.257 µg/mL | IC50 (µg/mL), pseudovirus neutralization [22]: 4.6 µg/mL | IC50, pseudovirus neutralization [36]: 0.036 µg/mL | IC50, pseudovirus neutralization [38]: 0.0054 µg/mL | IC50, pseudovirus neutralization [39]: > 10 µg/mL | EC50 [37]: 0.2 µg/mL
